The values that follow come from a protein production outcome set (Wang et al. 2014).

This data set can be described thus: label from the status in PepcDB records.
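Also: failed if final PepcDB status was selected cloned or expressed and not failed if soluble or beyond.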

As to “MASSTTSTVTDLSAALVMAPVPLADWLIILPIALCIGAGAVLMMMRHAIRHHAAVAIAALSLLVILNAALLWKVATQGPFTMVMGRWLPPFGIAFTADLTGALLSLAAAIVALAGAIHAGADIDASGRRYGFYPFLMLLMAGVTGAFLTGDLFNLYVWFEVLLISSFGLIVLGSTREQIDGALKYAILNLIGTTLFLITVGYLYAIFGTLNMADIALKATELRGTAPLMTLASLFALAFAMKAAAFPVNFWLPASYHTPRIVVSALFGGLLTKVGIYSLLRVMVMLFPVEREELSIVIAISAALTMVLGAMGALAQNDIRRMLGYIVISGIGYMMAGIAIGTPSGVSGAIFYALHSMVLMTALYLAAGHAARLGGGFSLTSLGDLYRQAPWFSALALALFFAGSGLPPFSGFWPKAVLVKSAIDIGAWWLAAAILVSGFIATIAFGRVFLLCFWRPVTTSAGQPALQPAARPPAPSVAPLVGLTLLVVFFGLFPESLLNLSQQAAAGLGNPQAYIQSVFPQGGKP”, the protein production result was “failed”.
The same measure for “MASSVDEEALHQLYLWVDNIPLSRPKRNLSRDFSDGVLVAEVIKFYFPKMVEMHNYVPANSLQQKLSNWGHLNRKVLKRLNFSVPDDVMRKIAQCAPGVVELVLIPLRQRLEERQRRRKQ”: “not failed”; for “MASTIYTCKECGSDLNLNPNDLFPPDFYFEAGNKGTLSFAAVDAEKFRFEKEDKIMPFFETLNYWGIQRKRTKIKCTSCNHLIGYIYDDGPPLTGGIGQYGFGPSQVIPRAPRYRFKTKARQDGWQYGGLTAFWN”: “failed”; for “MASTVSVQPGRIRILKKGSWQPLDQTVGPVVYWMFRDQRLKDNWALIHAVDLANRTNAPVAVVFNLFDQFLDAKARQLGFMLKGLRQLHHQIDSLQIPFFLLQGDAKETIPNFLTECGASHLVTDFSPLREIRRCKDEVVKRTSDSLAIHEVDAHNVVPMWAASSKLEYSARTIRGKINKLLPDYLIEFPKLEPPKKKWTGMMDKKLVDWDSLIDKVVREGAEVPEIEWCVPGEDAGIEVLMGNKDGFLTKRLKNYSTDRNNPIKPKALSGLSPYLHFGQVSAQRCALEARKVRSTSPQAVDTFLEELIVRRELSDNFCYYQPHYDSLKGAWEWARKSLMDHASDKREHIYSLEQLEKGLTADPLWNASQLEMVYQGKMHGFMRMYWAKKILEWTKGPEEALSISIYLNNKYEIDGRDPSGYVGCMWSICGVHDQGWKERPVFGKIRYMNYAGCKRKFNVDSYISYVKSLVSVTKKKRKAEEQLTRDSVDPKITIV”: “failed”.
For the sequence “MASVSVSHLILFIASMAIAASVAGVFTSSIGELSNAVSEQGLDVSSDVRTDVEIISDSGSDTIYDSGANTITVHVKNTGSETLAPVPGQVDVFVDGTFASDYTVTLEPNGGNSWRPGEVVRIDINDNLSGGDHRLKLIVNGDEEVFEFNT”, the protein production entry is listed as “failed”.
With “MASWSLRTVPPKMGRVVNCQNHITAGGGRRTLMKIILTGATGFVGCSLVPLLHQQGHELTLLVRSVSKAQRLFAPGSFPQLKAIAYEATKSGDWQKVVDGQDAVINLAGEPISERWTEAYKAEIFDSRKLGTEKLVEAIAKADRKPQVMISGSAIGYYGTSETATFTESSKPGDDFLAEVCQAWENAAHQVEQLGVRLVVFRIGIVLGADGGALAKMLPPFKLFAGGPLGSGEQWFSWIDRRDLIALIDKALTDSTLRGTYNATAPNPVKMKEFCHTLGKVLARPSWLPVPDIALELLLGEGAKLVLEGQEVLPGAISKTDFQFQAPDLETSLRQILGS”, the protein production entry is given as “failed”.
The same measure for “MASYDQISKNNWRYRISLGKNAETGKYEYISKTGFKRKSDAKHQAEMIGRQLRNGDYIAPSSSTFKQVADDWLKQYANDVKVSSVRAREKAIQHAIERFNTKPIQTIKKHDYQRFVDDISAQYSKNYVDSIVASTNMIFKYAYDTRLIKAMPSEGIKRPKKKVSVEELEDIEIHKKFLEKDELFQFLKVAKYHHSPQNSFEVFTTLAYTGMRAGELLALKWSDIDFENNTISITKTYYNPNNNKKHYQILTRKTESSIGKITVDPHVIQLLKDYKVNVQDTWKNELYVDNNFVFTDVNGYPLVIKKLQLWIKAILKKTDITNKQISTHSFRYTHYALLIEAGVHIKEIQERLRHKDINTTMNIYAKITNSYKKDASQKFSKLMENVSKGLF”: “failed”; for “MASYTLRQLKYFVTTVECGSVAEASRKLYIAQPSISTAVKGLEESFGVQLFIRHHAQGVSLTPAGARFYRKAQELLRMAHEFEQNALADNDVIAGQIDIGCFETVAPLYLPGLIAGFRQAYPGVEIRIRDGEQQELVQGLTSGRFDLAFLYEHDLDSTIETEPLMPPQRPHALLPEGHRFAGQAQVSLRDLCLEPMILLDVQPSRTYFVSLFEELGLTPNIAFSSPSIEMVRGMVGQGFGFSLLVTRPHSECTYDGKKVVMVDLAEPVSTSGLAAAWLKRAQLTKPARLFVDYCREQLGKLAERRH”: “not failed”.
Turning to “MATAGNPWGWFLGYLILGVAGSLVSGSCSQIINGEDCSPHSQPWQAALVMENELFCSGVLVHPQWVLSAAHCFQNSYTIGLGLHSLEADQEPGSQMVEASLSVRHPEYNRPLLANDLMLIKLDESVSESDTIRSISIASQCPTAGNSCLVSGWGLLANGRMPTVLQCVNVSVVSEEVCSKLYDPLYHPSMFCAGGGQDQKDSCNGDSGGPLICNGYLQGLVSFGKAPCGQVGVPGVYTNLCKFTEWIEKTVQAS”, the protein production entry was “not failed”.
The same measure for “MATASIAIAETPLVNYALRRGDDALVLGHRLSEWCGHAPMLEEDMALANIGLDLIGQARELFNYAAEVEGAANTEDSLAYLRDVRQYRNLLLVEQPNGDFARTMLRQLFYSAFADSYWRAMMGSSDPTLAAIAAKSEKESAYHLRHASEWVIRLGDGTEESHRRAQAAVDELWAFTGEMFQVDDGDAALIADGIAIDPERLRAGWSETVASVLARATLQQPSSSWMQKGGRAGHHSEHLGHLLSELQSLQRSFPGATW”: “failed”; for “MATATETSKATTKTQASAAADRESLTVSRAFNAPRDLVFQAWSAAEHLKHWFCPQGFTIPECEVEFRPGGKFDLWMRSLDGNYSHWIRGHYVEIIPHSRLVLDMTVVTEAGVALFNANTSVTFETVCGGTEMSVTQRYTALDPSAGNFTRGAEEGWAQTLDRLEKEVARIAAATPARSVAHGVFTIERTYDASPELVFRALSDPVAKAQWFNGGPGYTEVKRTMDVRPGGREHLQGRWENGLVSTFDAVYFDVIPNERLVYSYEMHMGERKISVSLATFELKRAGQGTRLVMTEQGAFLDGYDDAGSREHGSGLLLDAIGEWLKAMTKR”: “failed”; for “MATDTAERRIAHVRGVTVTAIACLAGVAAAVVSAAVADGAGDTLGLYVLVGGIIVQFPLLRVLEMAGLQLDVDDFGAKDYLYIAFMTFAMWFVCWTVLLTTGASV”: “failed”.
As for “MATEPLTHPTAAPKRTRDLLAGLSIAGLLLPEAVAYSSIAALPPQAGVIALFAGLLCYGLLGTSRFAIVSATSSSAAVLAAATLSLAGGDAQLRLSLAFALVLLTGVFFLLAGLFRLGGVTAFIAKPVLRGFAFGLALTIVLKQFATVVGVHLSTGNLVRFLPQLLEQWPQWNWAGAAVAAVALLVLGICSRIPYVPGGLVAVVIGIGAGQWFNLPAHGVDLIGVIELKLEVPSLPQLPFADWLRLGELAFALVMILYAESYGSISSFALKHGDRVSSNRDLLALGASNLLSGLFHGMPAGAGYSATSANEAAGARSRLAGLTAAAVMLLIVLTVLPYIALTPEPVLAAIVMYALGHGLSLQPLGRYFIWRRDRVLVICAVSAVLVLGVLDGLLLSVGISILLLLRQMSAADIQILGQLGSGHDFVDLSRHPQARQVPGVLILRPGEALFFANAERILGGALRLIRHVQAPIHSIILSLEESPDLDGTSIEALDEFFRQVSLEHKHLALARLKHEAKDALALLPSSREYQVLLSGTSVDDTLQESLRGWKAGAFSQA”, the protein production entry is on record as “failed”.
To “MATFSLGKHPHVELCDLLKLEGWSESGAQAKIAIAEGQVKVDGAVETRKRCKIVAGQTVSFAGHSVQVVA” belongs “not failed”; to “MATGQDRVVALVDMDCFFVQVEQRQNPHLRNKPCAVVQYKSWKGGGIIAVSYEARAFGVTRSMWADDAKKLCPDLLLAQVRESRGKANLTKYREASVEVMEIMSRFAVIERASIDEAYVDLTSAVQERLQKLQGQPISADLLPSTYIEGLPQGPTTAEETVQKEGMRKQGLFQWLDSLQIDNLTSPDLQLTVGAVIVEEMRAAIERETGFQCSAGISHNKVLAKLACGLNKPNRQTLVSHGSVPQLFSQMPIRKIRSLGGKLGASVIEILGIEYMGELTQFTESQLQSHFGEKNGSWLYAMCRGIEHDPVKPRQLPKTIGCSKNFPGKTALATR”, “failed”.
